Data taken from paper PMC2064262 (The Journal of Cell Biology, 2006).

Target: N-syndecan ectodomain IgG fusion protein (UniProt P33671 45-387, glycosylated (proteoglycan fragment with heparan sulfate chains))
Assay: ELISA

Chain of N-syndecan ectodomain IgG fusion protein (P33671 45-387): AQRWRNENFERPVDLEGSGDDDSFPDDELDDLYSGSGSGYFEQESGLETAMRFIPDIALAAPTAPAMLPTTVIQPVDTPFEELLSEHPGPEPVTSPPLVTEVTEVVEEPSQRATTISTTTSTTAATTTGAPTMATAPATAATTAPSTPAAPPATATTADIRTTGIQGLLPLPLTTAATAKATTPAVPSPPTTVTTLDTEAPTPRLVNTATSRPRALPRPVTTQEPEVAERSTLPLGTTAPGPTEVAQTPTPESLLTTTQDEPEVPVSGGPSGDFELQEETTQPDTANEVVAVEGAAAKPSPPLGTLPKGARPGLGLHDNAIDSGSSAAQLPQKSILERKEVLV

B1: heparin-binding growth-associated molecule (HB-GAM; pleiotrophin) (ligand, UniProt P63090 33-168, looked up)
chain: GKKEKPEKKVKKSDCGEWQWSVCVPTSGDCGLGTREGTRTGAECKQTMKTQRCKIPCNWKKQFGAECKYQFQAWGECDLNTALKTRTGSLKRALHNADCQKTVTISKPCGKLTKPKPQAESKKKKKEGKKQEKMLD
  Kd: 12 nM

B2: heparin-binding EGF-like growth factor (HB-EGF), human recombinant (ligand, UniProt Q99075 63-148, looked up)
chain: DLQEADLDLLRVTLSSKPQALATPNKEEHGKRKKKGKGLGKKRDPCLRKYKDFCIHGECKYVKELRAPSCICHPGYHGERCHGLSL
  Kd: 15 nM
